T1: human LRRC15 (leucine-rich repeat containing protein 15) (human, UniProt Q8TF66 22-581)
T1 construct: whole, on cells; also called huLRRC15
T1 sequence (looked up): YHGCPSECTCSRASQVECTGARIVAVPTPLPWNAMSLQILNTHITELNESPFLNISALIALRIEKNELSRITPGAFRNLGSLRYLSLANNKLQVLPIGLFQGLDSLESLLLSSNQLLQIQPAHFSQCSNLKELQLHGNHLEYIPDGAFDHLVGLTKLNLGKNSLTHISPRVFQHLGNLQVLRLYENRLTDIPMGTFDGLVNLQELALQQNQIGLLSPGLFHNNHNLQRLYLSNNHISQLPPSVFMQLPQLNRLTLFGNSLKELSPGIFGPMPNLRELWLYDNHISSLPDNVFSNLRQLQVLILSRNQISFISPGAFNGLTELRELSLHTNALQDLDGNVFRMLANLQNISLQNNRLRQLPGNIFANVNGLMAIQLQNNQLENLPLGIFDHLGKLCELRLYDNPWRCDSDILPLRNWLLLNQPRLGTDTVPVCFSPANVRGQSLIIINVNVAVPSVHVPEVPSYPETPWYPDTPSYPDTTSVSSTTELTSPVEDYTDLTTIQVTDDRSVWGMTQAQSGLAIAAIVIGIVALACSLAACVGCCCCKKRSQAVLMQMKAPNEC

B1: L15-08 (antibody, V domains shown)
VH: QVQLVESGGGLVKPGGSLRLSCAASGFTFSDYYMSWIRQAPGKGLEWVSDISVSSSYTNYADSVKGRFTISRDNAKNSLYLQMNSLRAEDTAVYYCARLGGYRSFFSTDDGDSLDYWGQGTLVTVSS
VL: not shown
notes: From phage library screening
B2: L15-03 (antibody, V domains shown)
VH: QVQLVQSGAEVKKPGSSVKVSCKASGGTFSSYTISWVRQAPGQGLEWMGGIIPMFGTANYAQKFQGRVTITADESTSTAYMELSSLRSEDTAVYYCARGVALLATDFDYWGQGTLVTVSS
VL: QSALTQPASVSGSPGQSITISCTGTSSDVGGYNYVSWYQQHPGKAPKLMIYEVSNRPSGVSNRFSGSKSGNTASLTISGLQAEDEADYYCQSWTHDNSVVFGGGTKLTVL
notes: From phage library screening; also called anti-LRRC15 antibody L15-03
B3: 153-L06C (bispecific antibody)
chain 1: not shown
chain 2: EPKSCDKTHTCPPCPAPEFEGGPSVFLFPPKPKDTLMISRTPEVTCVVVDVSHEDPEVKFNWYVDGVEVHNAKTKPREEQYNSTYRVVSVLTVLHQDWLNGKEYKCKVSNKALPASIEKTISKAKGQPREPQVCTLPPSRDELTKNQVSLTCLVEGFYPSDIAVEWESNGQPENNYKTTPPVLDSDGSFFLYSDLTVDKSRWQQGNVFSCSVMHEALHNHYTQESLSLSPGK
notes: Targets LRRC15 and CD3; heterodimeric IgG1 Fc; also called bispecific antibody of structure b (scFv-scFv-Fc x Fc)
B4: 315-L06C08 (bispecific antibody)
chain: not shown
heavy: QVQLVESGGGLVKPGGSLRLSCAASGFTFSDYYMSWIRQAPGKGLEWVSDISVSSSYTNYADSVKGRFTISRDNAKNSLYLQMNSLRAEDTAVYYCARLGGYRSFFSTDDGDSLDYWGQGTLVTVSSASTKGPSVFPLAPSSKSTSGGTAALGCLVKDYFPEPVTVSWNSGALTSGVHTFPAVLQSSGLYSLSSVVTVPSSSLGTQTYICNVNHKPSNTKVDKRVEPKSCDKTHTCPPCPAPEFEGGPSVFLFPPKPKDTLMISRTPEVTCVVVDVSHEDPEVKFNWYVDGVEVHNAKTKPREEQYNSTYRVVSVLTVLHQDWLNGKEYKCKVSNKALPASIEKTISKAKGQPREPQVCTLPPSRDELTKNQVSLTCLVEGFYPSDIAVEWESNGQPENNYKTTPPVLDSDGSFFLYSDLTVDKSRWQQGNVFSCSVMHEALHNHYTQESLSLSPGK
light: not shown
notes: heterodimeric IgG1 Fc; also called bispecific antibody of structure c (scFv-scFv-Fc x Fab-Fc)
B5: L15-07 (antibody, V domains shown)
VH: QVQLVQSGAEVKKPGSSVKVSCKASGGTFSTYAISWVRQAPGQGLEWMGGITPMFGTPNYAQKFQGRVTITADESTSTAYMELSSLRSEDTAVYYCARGDWYDYHFDYWGQGTLVTVSS
VL: QSALTQPASVSGSPGQSITISCTGTSSDVGGYNYVSWYQQHPGKAPKLMIYEVSNRPSGVSNRFSGSKSGNTASLTISGLQAEDEADYYCQSYANRDNFVVFGGGTKLTVL
notes: From phage library screening
B6: L15-06 (antibody, V domains shown)
VH: EVQLLESGGGLVQPGGSLRLSCAASGFTFSSYYMSWVRQAPGKGLEWVADISVSGSYTNYADSVKGRFTISRDNSKNTLYLQMNSLRAEDTAVYYCARIGSYRSFFSTDDGDSLDYWGQGTLVTVSS
VL: not shown
notes: From phage library screening; tested as a 'monoclonal antibody molecule'; also called L15-L06

biological target: T1, human LRRC15 (leucine-rich repeat …); test: FACS on CHO cells expressing human LRRC15
Procedure: Furthermore, the binding ability of the LRRC15 antibodies of the present invention to CHO cells expressing LRRC15 was tested. Therein, CHO cells expressing LRRC15 were prepared by the following method: the full-length sequence gene fragments of human, mouse and monkey LRRC15 were obtained by whole gene synthesis, and then these fragments were inserted into the backbone of the stable expression vector to obtain the expression plasmid vectors. These three plasmids were transfected into CHO cells, and monoclonal cell lines were screened under the pressure of puromycin, which are the flow cytometry cell lines used in this example.
CHO cells expressing LRRC15 were washed with FACS buffer (0.5% BSA in PBS) and resuspended at 2E6 cells/ml with the gradient diluted LRRC15 antibodies. The resuspension was incubated on ice for 30 minutes, then washed twice with FACS buffer and incubated with the second antibody on ice for 30 minutes. After washing the resuspended cells with FACS buffer again, the cells were detected by flow cytometry. Based on the measured mean fluorescence intensity, the half maximal binding concentration (EC50) of each antibody was determined.

Binder | binding result
B1 | binds
B2 | binds
B3 | binds
B4 | binds
B5 | binds
B6 | binds

From patent US20250051444A1 (SUZHOU ZELGEN BIOPHARMACEUTICALS, published 2025)
